Results on four molecules are retold here after patent US20220089698A1.

What all share (experiment): cell-based or functional assay
The target in assay [1] is HIV-1 envelope glycoprotein gp120 of virus 92US657 (HIV-1 subtype B, isolate 92US657).
In assay [2] the target is HIV-1 envelope glycoprotein gp120 of virus BaL (HIV-1 BaL (lab adapted strain, subtype B)).
The target of assay [3] is HIV-1 envelope glycoprotein gp120 of virus CHO77 (HIV-1 subtype B, virus CHO77).
The target of assay [4] is HIV-1 envelope glycoprotein (Env, gp120) of virus VS001 (HIV-1).
Assay [5] deals with HIV-1 envelope glycoprotein (Env, gp120) of virus VS039 (HIV-1).
In assay [6] the target is HIV-1 envelope glycoprotein (Env, gp120) of virus VS026 (HIV-1).
For assay [7], the target named is HIV-1 envelope glycoprotein (Env, gp120) of virus 92US712 (HIV-1).
For assay [8], the target named is HIV-1 envelope glycoprotein (Env, gp120) of virus 92US657 (HIV-1).
The target of assay [9] is HIV-1 envelope glycoprotein (Env, gp120) of virus CHO77 (HIV-1).
Assay [10] deals with HIV-1 envelope glycoprotein (Env, gp120) of virus 92HT593 (HIV-1).
For assay [11], the target named is HIV-1 envelope glycoprotein (Env, gp120) of virus 1413 (HIV-1).
In assay [12] the target is HIV-1 envelope glycoprotein (Env, gp120) of virus 7103 (HIV-1).
In assay [13] the target is HIV-1 envelope glycoprotein (Env, gp120) of virus VS030 (HIV-1).
Assay [14] has as its target HIV-1 envelope glycoprotein (Env, gp120) of virus 7051 (HIV-1).
The target in assay [15] is HIV-1 envelope glycoprotein (Env, gp120) of virus 1489 (HIV-1).
In assay [16] the target is HIV-1 envelope glycoprotein (Env, gp120) of virus 1012 (HIV-1).
Assay [17] concerns the target HIV-1 envelope glycoprotein (Env, gp120) of virus VS044 (HIV-1).
Assay [18] addresses HIV-1 envelope glycoprotein (Env, gp120) of virus 8318 (HIV-1).
In assay [19] the target is HIV-1 envelope glycoprotein (Env, gp120) of virus VS017 (HIV-1).
Assay [20] deals with HIV-1 envelope glycoprotein (Env, gp120) of virus 7467 (HIV-1).
The target in assay [21] is HIV-1 envelope glycoprotein (Env, gp120) of virus 7595 (HIV-1).
The target of assay [22] is HIV-1 envelope glycoprotein (Env, gp120) of virus 8117 (HIV-1).
For assay [23], the target named is HIV-1 envelope glycoprotein (Env, gp120) of virus 1003 (HIV-1).
Assay [24] has as its target HIV-1 envelope glycoprotein (Env, gp120) of virus 302076 (HIV-1).
The target in assay [25] is HIV-1 envelope glycoprotein (Env, gp120) of virus 7015 (HIV-1).
Assay [26] addresses HIV-1 envelope glycoprotein (Env, gp120) of virus VS043 (HIV-1).
Assay [27] deals with HIV-1 envelope glycoprotein (Env, gp120) of virus 7141 (HIV-1).
Assay [28] addresses HIV-1 envelope glycoprotein (Env, gp120) of virus VS049 (HIV-1).
In assay [29] the target is HIV-1 envelope glycoprotein (Env, gp120) of virus 8106 (HIV-1).
Assay [30] concerns the target HIV-1 envelope glycoprotein (Env, gp120) of virus 8176 (HIV-1).
Assay [31] addresses HIV-1 envelope glycoprotein (Env, gp120) of virus 8134 (HIV-1).
The target in assay [32] is HIV-1 envelope glycoprotein (Env, gp120) of virus REJO (HIV-1).
Assay [33] concerns the target HIV-1 envelope glycoprotein (Env, gp120) of virus 7552 (HIV-1).
Assay [34] has as its target HIV-1 envelope glycoprotein (Env, gp120) of virus 8320 (HIV-1).
The target of assay [35] is HIV-1 envelope glycoprotein (Env, gp120) of virus 7576 (HIV-1).
For assay [36], the target named is HIV-1 envelope glycoprotein (Env, gp120) of virus 92US727 (HIV-1).
Assay [37] deals with HIV-1 envelope glycoprotein (Env, gp120) of virus 8110 (HIV-1).
The target in assay [38] is HIV-1 envelope glycoprotein (Env, gp120) of virus VS046 (HIV-1).
In assay [39] the target is HIV-1 envelope glycoprotein (Env, gp120) of virus VS004 (HIV-1).
Assay [40] has as its target HIV-1 envelope glycoprotein (Env, gp120) of virus THRO (HIV-1).
In assay [41] the target is HIV-1 envelope glycoprotein (Env, gp120) of virus VS042 (HIV-1).
For assay [42], the target named is HIV-1 envelope glycoprotein (Env, gp120) of virus 7714 (HIV-1).
The target of assay [43] is Env from subtype B plasma isolates (panel of 142 HIV-1 pseudotyped viruses).

Substitutions are numbered along the chain they refer to.

B1: Antibody 1.36.35-1 (antibody, human IgG1, kappa, V domains shown)
VH: QVQLVQSGAEVKKPGASVRVSCKASGYNIRDYFMHWWRQAPGQGLQWVGWINPKTGQPNNPRQFQGRVTMTRHASWDFDTFSAYMDLSRLRSDDTATYFCARQRTDYWDFDVWGQGTMVTVSS
VL: DIQMTQSPSSLSASVGDRVTITCQANGYLNWYQQKPGKAPKLLIYDGSNLETGVPSRFSGSRWGQEYTLTISSLQPEDIATYFCQVYEFVGPGTNLDIKR
B1: the Virus Neutralization Potency (IC50) is 5.37 µg/mL in assay [1], more than 20 µg/mL in assay [2] and 0.32 µg/mL in [3].

B2: Antibody 1.1.104-1 (antibody, human IgG1, kappa, V domains shown)
VH: QVQLLQSGAAVTKPGASVRVSCEASGYNIRDYFIHWWRQAPGQGLQWVGWINPKTGQPNNPRQFQGRVSLTRHASWDFDTFSFYMDLKALRSDDTAVYFCARQRSDYWDFDVWGSGTQVTVSS
VL: DIQMTQSPSSLSASVGDTATITCQANGYLNWYQQRRGKAPKLLIYDGSKLERGVPSRFSGRRWGQEYTLTINNLQPEDIATYFCQVYEFFGPGTRLDLKR
With B2, the Virus Neutralization Potency in assay [4] was determined as 0.34 µg/mL; in assay [5] it was 0.1 µg/mL; in [6], 0.19 µg/mL; in assay [7], 0.04 µg/mL; in assay [8], 0.36 µg/mL; in [9] it was 0.03 µg/mL. Moreover, the Virus Neutralization Potency in assay [10] was found to be 0.28 µg/mL; in assay [11] it was 4.34 µg/mL; in assay [12] it was 1.82 µg/mL; in assay [13], 7.9 µg/mL; in assay [14], 1.32 µg/mL; in [15] it was 0.28 µg/mL. For the same molecule, the Virus Neutralization Potency in [16] was 2.87 µg/mL; in [17], 0.28 µg/mL; in [18], 0.32 µg/mL; in [19] it was 2.33 µg/mL; in assay [20], 0.06 µg/mL; in [21], 8.47 µg/mL. For the same molecule, the Virus Neutralization Potency worked out at 1.22 µg/mL in assay [22]; 1.44 µg/mL in [23]; 0.1 µg/mL in assay [24]; 0.67 µg/mL in assay [25]; 1.49 µg/mL in assay [26]; 6.57 µg/mL in assay [27]. Further, the Virus Neutralization Potency in [28] was more than 100 µg/mL; in assay [29], 2.8 µg/mL; in [30], 0.16 µg/mL; in [31] it was 6.07 µg/mL; in assay [32], 0.02 µg/mL; in [33], more than 80 µg/mL. The Virus Neutralization Potency in assay [34] stood at 4.34 µg/mL; in assay [35], 1.1 µg/mL; in assay [36], 10.6 µg/mL; in [37], 4.19 µg/mL; in assay [38], 0.03 µg/mL; in assay [39], 4.8 µg/mL. Moreover, the Virus Neutralization Potency was 4.27 µg/mL in assay [40] and 2.33 µg/mL in assay [41].

B3: Antibody 1.1.119-1 (antibody, human IgG1, kappa, V domains shown)
VH: B2 VH
VL: B2 VL with T18R, R61S, N72S, N73S
For B3, the Virus Neutralization Potency was found to be 0.37 µg/mL in [4]; 0.13 µg/mL in assay [5]; 0.14 µg/mL in assay [6]; 0.03 µg/mL in assay [7]; 0.3 µg/mL in assay [8]; 0.02 µg/mL in assay [9]. For the same molecule, the Virus Neutralization Potency in assay [10] was 0.15 µg/mL; in [11] it was 4.52 µg/mL; in assay [12] it was 1.16 µg/mL; in assay [13], 4.96 µg/mL; in assay [14] it was 1.89 µg/mL; in [15], 0.17 µg/mL. Moreover, the Virus Neutralization Potency in assay [16] is 1.06 µg/mL; in assay [17], 0.2 µg/mL; in assay [18], 0.42 µg/mL; in assay [19], 2.75 µg/mL; in assay [20], 0.19 µg/mL; in [21] it was 3.07 µg/mL. In addition, the Virus Neutralization Potency in assay [22] stood at 1.66 µg/mL; in assay [23] it was 0.91 µg/mL; in [24], 0.08 µg/mL; in assay [25], 1.08 µg/mL; in assay [26], 0.81 µg/mL; in [27], 4.98 µg/mL. Moreover, the Virus Neutralization Potency was more than 100 µg/mL in [28]; 1.44 µg/mL in assay [29]; 0.27 µg/mL in assay [30]; 3.44 µg/mL in assay [31]; 0.03 µg/mL in [32]; more than 80 µg/mL in [33]. The Virus Neutralization Potency stood at 1.47 µg/mL in [34]; 1.93 µg/mL in assay [42]; 0.6 µg/mL in [35]; 43.7 µg/mL in assay [36]; 2.37 µg/mL in [37]; 0.03 µg/mL in [38]. In addition, the Virus Neutralization Potency in [39] is 6.02 µg/mL; in [40], 2.8 µg/mL; in assay [41], 2.19 µg/mL.

B4: Antibody A-1 (antibody, human IgG1, kappa)
heavy: QVQLLQSGAAVTKPGASVRVSCEASGYNIRDYFIHWWRQAPGQGLQWVGWINPKTGQPNNPRQFQGRVSLTRHASWDFDTFSFYMDLKALRSDDTAVYFCARQRSDYWDFDVWGSGTQVTVSSASTKGPSVFPLAPSSKSTSGGTAALGCLVKDYFPEPVTVSWNSGALTSGVHTFPAVLQSSGLYSLSSVVTVPSSSLGTQTYICNVNHKPSNTKVDKKVEPKSCDKTHTCPPCPAPELLAGPDVFLFPPKPKDTLMISRTPEVTCVVVDVSHEDPEVKFNWYVDGVEVHNAKTKPREEQYNSTYRVVSVLTVLHQDWLNGKEYKCKVSNKALPLPEEKTISKAKGQPREPQVYTLPPSREEMTKNQVSLTCLVKGFYPSDIAVEWESNGQPENNYKTTPPVLDSDGSFFLYSKLTVDKSRWQQGNVFSCSVLHEALHSHYTQKSLSLSPGK
light: DIQMTQSPSSLSASVGDTVTITCQANGYLNWYQQRRGKAPKLLIYDGSKLERGVPSRFSGRRWGQEYNLTINNLQPEDIATYFCQVYEFVVPGTRLDLKRTVAAPSVFIFPPSDEQLKSGTASVVCLLNNFYPREAKVQWKVDNALQSGNSQESVTEQDSKDSTYSLSSTLTLSKADYEKHKVYACEVTHQGLSSPVTKSFNRGEC
Turning to B4, the Median IC95 (neutralization) in assay [43] stood at 1.09 µg/mL.
